Test results published in paper PMC10987521, “An all-in-one tetrazine reagent for cysteine-selective labeling and bioorthogonal activable prodrug construction” (Nature Communications, 2024).
Read-outs that look alike come from different tables or passages of the source.

Assays:
[1] = system: B16F10 cells; experiment: Cell uptake by fluorescence imaging, B16F10; format: cell-based, Mouse; conditions: B16F10 pre-treated with 50-fold excess of unmodified RGD, 10 μM, 2 h
Method: (§1) B16F10 cells were cultured for 48 h. […]
(§2) 12.1 Calculation of the fluorescence coefficient (F c)
(§3) The Fc was the radio calculated
(§4) 12.2 Uptake calculation of the B16F10 cells […]
(§5) deviation were analyzed using Origin Pro 2015.
(§6) B16F10 cells, characterized by α vβ3
(§7) Following the incubation period, the
Subsequently, the cells were trypsinized and underwent three PBS rinses.
12 .4 Cell uptake analysis by fluorescence imaging

[2] = system: B16F10 cells; experiment: Comparison of cell uptake between RGD-Dox and Dox using flow cytometry; format: cell-based, Mouse
Method: as §1, §2, §3, §4, §5, §6, §7
Subsequently, the cells were trypsinized and underwent three PBS rinses. […]

[3] = Critical micelle concentration of peptide conjugates (Nile Red); format: physicochemical; conditions: PBS (5% DMSO), Nile Red 1.0 μM, room temperature overnight; intersection of tangents
Method: The second-order rate constant for the labeling reactions between tetrazine 1 and Cys was determined at 25 °C in PB (30% MeCN, 20 mM, pH 8.0) under second-order conditions using a 6000+ (Quawell) UV-Vis spectrophotometer. The concentrations of cysteine and tetrazine were identical. The specific difference in absorption wavelength (300 nm) between 1 and Cys-1 was measured over time. The second-order rate constant k2 was calculated from the slope of a plot of (1/c – 1/c0) versus time.
5. Competitive labeling reaction with other nucleophilic amino acids
For the competitive labeling experiment, 10 equiv. (2 mM) of N-Fmoc-Lys, N-Fmoc-Arg, Ser, Tyr, and 1.3 equiv. […] The resulting solution was maintained at 25 °C and monitored by LC –MS. […]
Each voTz analogue (1.1 equiv.) was added to a 0.25 mL vial containing solvent. […] The chromatogram peak areas of all relevant Cys -containing species were integrated, and the yiel d was determined using the following equation: Yield (%) = Iproduct/(Istarting + Iproduct + Ioxidation + Iside product) × 100, where Istarting, Iproduct, Ioxidation, and Iside product respectively represent the average ion counts of remaining starting material, product, oxidized starting material and any side product, if present 2. […]
DLS analyses and particle zeta potential values were determined using a Nano ZS ZEN 3690 instrument (Malvern […]

[4] = Stability in FBS (serum); format: in vitro ADME; conditions: for remaining at 1 h, 50 μM / remaining at 2 h, 50 μM / remaining at 3 h, 50 μM / RGD-Dox (%): stability in the FBS; for remaining at 1 h, 50 μM / remaining at 2 h, 50 μM / remaining at 3 h, 50 μM: read-out: RGD-Dox (%)
Method: The results are shown as the mean ± SD. Source data are provided as a Source Data file. […]
Supplementary Fig. 48. Stability of RGD-Dox in the 50% FBS. RGD-Dox was diluted to a concentration of 50 μM
using 50% FBS/PBS (10% DMSO). The mixture was homogenized and incubated at 37 °C. The stability of RGD-Dox
was assessed by measuring the decrease in peak area at 520 nm (with the initial peak area at 0 min defined as 100%).
This measurement was monitored by HPLC–MS. Independent measurements were taken three times. The results are
shown as the mean ± SD. Source data are provided as a Source Data file. […]
Source data are provided as a Source Data file.

COc1cccc2c1C(=O)c1c(O)c3c(c(O)c1C2=O)C[C@@](O)(C(=O)CO)C[C@@H]3O[C@H]1C[C@H](NC(=O)OCc2nnc(CCSC[C@@H]3NC(=O)[C@@H](Cc4ccc(O)cc4)NC(=O)[C@H](CC(=O)O)NC(=O)CNC(=O)[C@H](CCCNC(=N)N)NC3=O)nn2)[C@H](O)[C@H](C)O1 [RGD-Dox]
cellular fluorescence (uptake) after blocking with unmodified RGD [1]: negligible fluorescence | Normalized uptake ([2]; normalized to Dox = 1, Data 1): 22.44 | Normalized uptake ([2]; normalized to Dox = 1, Data 2): 22.03 | Normalized uptake ([2]; normalized to Dox = 1, Data 3): 17.85 | critical micellar concentration (CMC) [3]: 3.31 µM | remaining at 5 h, 50 μM ([4]; bovine, serum, 5 h, 37 °C, 50 μM in 50% FBS/PBS (10% DMSO), HPLC–MS peak area 520 nm, n = 3, read-out: intact in serum): 80% | remaining at 1 h, 50 μM ([4]; bovine, serum, Data 1): 97% | remaining at 1 h, 50 μM ([4]; bovine, serum, Data 3): 93% | remaining at 2 h, 50 μM ([4]; bovine, serum, Data 1): 88% | remaining at 2 h, 50 μM ([4]; bovine, serum, Data 3): 89% | remaining at 3 h, 50 μM ([4]; bovine, serum, Data 1): 86% | remaining at 3 h, 50 μM ([4]; bovine, serum, Data 2): 82% | remaining at 3 h, 50 μM ([4]; bovine, serum, Data 3): 84% | RGD-Dox (%) ([4]; 0 h, Data 2): 100% | RGD-Dox (%) ([4]; 0 h, Data 3): 100% | RGD-Dox (%) ([4]; 5 h, Data 1): 80% | RGD-Dox (%) ([4]; 5 h, Data 2): 77% | RGD-Dox (%) ([4]; 5 h, Data 3): 81%
